The supplement of paper PMC11316812
± gives the standard deviation of the averaged measurements.

Columns and labels:
MCF7 = assay: percentage of EdU-negative (G0-arrested) nuclei per well, 72 h; higher = more G0 arrest; settings: reference: sequence is the full UniProt precursor, the tested protein was the secreted form or ectodomain
hTERT-HMEC = assay: as above; settings: reference: sequence is the full UniProt precursor, the tested protein was the secreted form or ectodomain
[1] = protein concentration 0.0225 µM
[2] = protein concentration 0.0285714 µM
[3] = protein concentration 0.285714 µM
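Also: secreted proteins added to cultured cells, EdU pulse at the end, nuclei found by Hoechst imaging, EdU status from nuclear versus surrounding ring intensity ratio, PBS as neutral control.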

| Sequence | percentage of EdU-negative (MCF7; [1]) [%] | percentage of EdU-negative (MCF7; protein concentration 0.225 µM) [%] | percentage of EdU-negative (hTERT-HMEC; [1]) [%] | percentage of EdU-negative (hTERT-HMEC; protein concentration 0.225 µM) [%] | percentage of EdU-negative (MCF7; [2]) [%] | percentage of EdU-negative (MCF7; [3]) [%] | percentage of EdU-negative (hTERT-HMEC; [2]) [%] | percentage of EdU-negative (hTERT-HMEC; [3]) [%] |
| --- | --- | --- | --- | --- | --- | --- | --- | --- |
| MLRLYVLVMGVSAFTLQPAAHTGAARSCRFRGRHYKREFRLEGEPVALRCPQVPYWLWASVSPRINLTWHKNDSARTVPGEEETRMWAQDGALWLLPALQEDSGTYVCTTRNASYCDKMSIELRVFENTDAFLPFISYPQILTLSTSGVLVCPDLSEFTRDKTDVKIQWYKDSLLLDKDNEKFLSVRGTTHLLVHDVALEDAGYYRCVLTFAHEGQQYNITRSIELRIKKKKEETIPVIISPLKTISASLGSRLTIPCKVFLGTGTPLTTMLWWTANDTHIESAYPGGRVTEGPRQEYSENNENYIEVPLIFDPVTREDLHMDFKCVVHNTLSFQTLRTTVKEASSTFSWGIVLAPLSLAFLVLGGIWMHRRCKHRTGKADGLTVLWPHHQDFQSYPK | 25.1 ± 1.5 | 30.8 ± 0.31 | 5.09 ± 0.47 | 9.76 ± 1.8 |  |  |  |  |
| MSRGLQLLLLSCAYSLAPATPEVKVACSEDVDLPCTAPWDPQVPYTVSWVKLLEGGEERMETPQEDHLRGQHYHQKGQNGSFDAPNERPYSLKIRNTTSCNSGTYRCTLQDPDGQRNLSGKVILRVTGCPAQRKEETFKKYRAEIVLLLALVIFYLTLIIFTCKFARLQSIFPDFSKAGMERAFLPVTSPNKHLGLVTPHKTELV | 25.6 ± 5.2 | 25.7 ± 2.3 | 4.68 ± 0.067 | 8.57 ± 0.3 |  |  |  |  |
| MGPLSAPPCTQRITWKGVLLTASLLNFWNPPTTAQVTIEAQPPKVSEGKDVLLLVHNLPQNLAGYIWYKGQMTYLYHYITSYVVDGQRIIYGPAYSGRERVYSNASLLIQNVTQEDAGSYTLHIIKRRDGTGGVTGHFTFTLHLETPKPSISSSNLNPREAMEAVILTCDPATPAASYQWWMNGQSLPMTHRLQLSKTNRTLFIFGVTKYIAGPYECEIRNPVSASRSDPVTLNLLPKLSKPYITINNLNPRENKDVLTFTCEPKSKNYTYIWWLNGQSLPVSPRVKRPIENRILILPNVTRNETGPYQCEIRDRYGGIRSDPVTLNVLYGPDLPSIYPSFTYYRSGENLYLSCFAESNPRAQYSWTINGKFQLSGQKLSIPQITTKHSGLYACSVRNSATGKESSKSITVKVSDWILP |  |  |  |  | 25.3 ± 1.1 | 30.6 ± 3.2 | 4.04 ± 0.52 | 11.7 ± 1.3 |
| MMLRVLVGAVLPAMLLAAPPPINKLALFPDKSAWCEAKNITQIVGHSGCEAKSIQNRACLGQCFSYSVPNTFPQSTESLVHCDSCMPAQSMWEIVTLECPGHEEVPRVDKLVEKILHCSCQACGKEPSHEGLSVYVQGEDGPGSQPGTHPHPHPHPHPGGQTPEPEDPPGAPHTEEEGAED | 25.6 ± 1.4 | 24.7 ± 0.79 | 5.79 ± 0.84 | 5.88 ± 0.42 |  |  |  |  |
| MPRRSLHAAAVLLLVILKEQPSSPAPVNGSKWTYFGPDGENSWSKKYPSCGGLLQSPIDLHSDILQYDASLTPLEFQGYNLSANKQFLLTNNGHSVKLNLPSDMHIQGLQSRYSATQLHLHWGNPNDPHGSEHTVSGQHFAAELHIVHYNSDLYPDASTASNKSEGLAVLAVLIEMGSFNPSYDKIFSHLQHVKYKGQEAFVPGFNIEELLPERTAEYYRYRGSLTTPPCNPTVLWTVFRNPVQISQEQLLALETALYCTHMDDPSPREMINNFRQVQKFDERLVYTSFSQVQVCTAAGLSLGIILSLALAGILGICIVVVVSIWLFRRKSIKKGDNKGVIYKPATKMETEAHA | 26 ± 0.83 | 25.7 ± 0.64 | 5.44 ± 1.7 | 5.5 ± 1.2 |  |  |  |  |
| MSGGRAPAVLLGGVASLLLSFVWMPALLPVASRLLLLPRVLLTMASGSPPTQPSPASDSGSGYVPGSVSAAFVTCPNEKVAKEIARAVVEKRLAACVNLIPQITSIYEWKGKIEEDSEVLMMIKTQSSLVPALTDFVRSVHPYEVAEVIALPVEQGNFPYLQWVRQVTESVSDSITVLP | 25.3 ± 1.7 | 25.2 ± 1.5 | 4.5 ± 0.32 | 5.97 ± 0.34 |  |  |  |  |
| MGLQACLLGLFALILSGKCSYSPEPDQRRTLPPGWVSLGRADPEEELSLTFALRQQNVERLSELVQAVSDPSSPQYGKYLTLENVADLVRPSPLTLHTVQKWLLAAGAQKCHSVITQDFLTCWLSIRQAELLLPGAEFHHYVGGPTETHVVRSPHPYQLPQALAPHVDFVGGLHRFPPTSSLRQRPEPQVTGTVGLHLGVTPSVIRKRYNLTSQDVGSGTSNNSQACAQFLEQYFHDSDLAQFMRLFGGNFAHQASVARVVGQQGRGRAGIEASLDVQYLMSAGANISTWVYSSPGRHEGQEPFLQWLMLLSNESALPHVHTVSYGDDEDSLSSAYIQRVNTELMKAAARGLTLLFASGDSGAGCWSVSGRHQFRPTFPASSPYVTTVGGTSFQEPFLITNEIVDYISGGGFSNVFPRPSYQEEAVTKFLSSSPHLPPSSYFNASGRAYPDVAALSDGYWVVSNRVPIPWVSGTSASTPVFGGILSLINEHRILSGRPPLGFLNPRLYQQHGAGLFDVTRGCHESCLDEEVEGQGFCSGPGWDPVTGWGTPNFPALLKTLLNP | 25.3 ± 1.4 | 27.9 ± 4.2 | 5.11 ± 0.24 | 10.72 ± 0.011 |  |  |  |  |
